For 15 molecules, binding result and Kd results are on record in PMC7968997.

Changes are numbered by the printed parent chain.

The target in data set [1] is T1, RBM45 RRM1-2 F124A/Y165A (RRM1 analog) (Homo sapiens, UniProt Q8IUH3 23-202, F124A;Y165A).
T1 sequence: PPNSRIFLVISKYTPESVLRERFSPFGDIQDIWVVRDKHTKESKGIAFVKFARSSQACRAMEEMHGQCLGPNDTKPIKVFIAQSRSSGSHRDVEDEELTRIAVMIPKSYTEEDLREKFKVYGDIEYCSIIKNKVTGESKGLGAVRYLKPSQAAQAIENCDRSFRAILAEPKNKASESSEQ
Kind of data set: fluorescence polarization. Background: In fluorescence polarisation assays a small probe gives low polarisation when free and higher when bound to something large.

Data set [2] deals with T2, RBM45 RRM1-2 WT (Homo sapiens, UniProt Q8IUH3 23-202).
T2 sequence: T1 sequence with A102F, A143Y
Kind of data set: fluorescence polarization.

Data set [3] deals with T3, RBM45 RRM1-2 F29A/F70A (RRM2 analog) (Homo sapiens, UniProt Q8IUH3 23-202, F29A;F70A).
T3 sequence: T1 sequence with F7A, F48A, A102F, A143Y
Put plainly: fluorescence polarization.

In data set [4] the target is T2, RBM45 RRM1-2 WT. Put plainly: gel filtration, SEC-MALS.
The target of data set [5] is T2, RBM45 RRM1-2 WT. Put plainly: gel filtration, SEC-MALS. The source holds these as a separate data set.
Data set [6] has as its target T2, RBM45 RRM1-2 WT. Put plainly: gel filtration.
The target of data set [7] is T2, RBM45 RRM1-2 WT. Kind of data set: gel filtration, SEC-MALS. The source holds these as a separate data set.
The target of data set [8] is T2, RBM45 RRM1-2 WT. Put plainly: fluorescence polarization. The source holds these as a separate data set.
Data set [9] concerns the target T2, RBM45 RRM1-2 WT. Kind of data set: gel filtration, SEC-MALS. The source holds these as a separate data set. (In general: Size exclusion chromatography separates by hydrodynamic size, large species first.)
For data set [10], the target named is T2, RBM45 RRM1-2 WT. Put plainly: gel filtration, SEC-MALS. This is another data set of the same source.
The target in data set [11] is T2, RBM45 RRM1-2 WT. Kind of data set: crystal structure.
Data set [12] addresses T2, RBM45 RRM1-2 WT. Put plainly: gel filtration, SEC-MALS. This is another data set of the same source.
Data set [13] concerns the target T1, RBM45 RRM1-2 F124A/Y165A (RRM1 analog). Put plainly: fluorescence polarization. The source holds these as a separate data set.
The target of data set [14] is T3, RBM45 RRM1-2 F29A/F70A (RRM2 analog). Put plainly: fluorescence polarization. This is another data set of the same source.
In data set [15] the target is T2, RBM45 RRM1-2 WT. Kind of data set: gel filtration, SEC-MALS. The source holds these as a separate data set.
Data set [16] has as its target T2, RBM45 RRM1-2 WT. Kind of data set: gel filtration, SEC-MALS. The source holds these as a separate data set.

Take GGACGG (ssRNA, m6A at position 3) [GG(m6A)CGG RNA]: the binding result (in [1]; in the data set with RBM45 RRM1-2 WT [2]; in data set [3]) was “binds” in each case.

CGACGGUUGGACGC (ssRNA) [14-mer 2-GAC RNA]: in the data set with RBM45 RRM1-2 WT [4], the binding result is listed as “binds”. Consider CGACGGUUUUUUGGACGC (ssRNA) [18-mer 2-GAC RNA], for which the binding result in the data set with RBM45 RRM1-2 WT [5] is recorded as “binds”.

Turning to CGACGGACGC (ssRNA) [10-mer 2-GAC RNA], the binding result with RBM45 RRM1-2 WT [6] is recorded as “binds”. As to CGACGGUUUUUUUUUUGGACGC (ssRNA) [22-mer 2-GAC RNA], the binding result in the data set with RBM45 RRM1-2 WT [7] is given as “binds”. A word on the Kd: it is the equilibrium constant for the complex coming apart. High values mean weaker binding, low ones tighter binding. Regarding UUUUUU (ssRNA) [polyU 6-mer RNA], the Kd with RBM45 RRM1-2 WT [8] amounted to 57200 ± 10200 nM. Take CGACGACGC (ssRNA) [9-mer 2-GAC RNA]: the binding result with RBM45 RRM1-2 WT [6] was “binds”. Take CGACGGGGACGC (ssRNA) [12-mer 2-GAC RNA]: the binding result with RBM45 RRM1-2 WT [9] is listed as “binds”. As to CGACGGGACGC (ssRNA) [11-mer 2-GAC RNA], the binding result with RBM45 RRM1-2 WT [10] is “binds”.

Regarding CGACGGGACGC (ssDNA) [11-nt ssDNA], in the data set with RBM45 RRM1-2 WT [11], the binding result is “binds”.

With CGACGGUUUUUUUUGGACGC (ssRNA) [20-mer 2-GAC RNA], the binding result in the data set with RBM45 RRM1-2 WT [12] is “binds”. For GGACGG (ssDNA) [GGACGG ssDNA], the Kd in data set [13] was determined as 1210 ± 90 nM; with RBM45 RRM1-2 WT [8], 805 ± 108 nM; in data set [14], 2310 ± 190 nM. CGACGGUUUUUUUUUUUUUUGGACGC (ssRNA) [26-mer 2-GAC RNA]: in the data set with RBM45 RRM1-2 WT [15], the binding result was “binds”.

On to CGACGGUUUUGGACGC (ssRNA) [16-mer 2-GAC RNA], for which the binding result with RBM45 RRM1-2 WT [4] is “binds”. Turning to CGACGGUUUUUU (ssRNA) [12-mer GAC-polyU RNA], the binding result with RBM45 RRM1-2 WT [16] is “binds”.
